Consider seven substances from the supplement of paper PMC5998384.

Series [1] relates to HeLa Kyoto. The experiment in a line: solubility in G1/S (NP-40 vs SDS abundance) (log2 ratio); higher = more soluble. To be noted: cell cycle stage: G1/S.
Series [2] concerns HeLa Kyoto. The experiment in a line: thermal stability score vs G1/S (z-score of summed log2 fold changes over temperatures); higher = more thermally stable than in G1/S.
In series [3] the test system is HeLa Kyoto. The experiment in a line: solubility change mitosis vs G1/S (difference of NP-40 vs SDS log2 ratios) (log2 ratio difference); higher = more soluble in mitosis.
For series [4], the system named is HeLa Kyoto. The experiment in a line: melting temperature (median over replicates), in situ; higher = more thermally stable.
[5] abbreviates: cell cycle stage: early G1 (4.5 h after nocodazole release).
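Throughout, for melting temperature (median over replicates), in situ: HeLa Kyoto cells synchronized by double thymidine or nocodazole block, proteins quantified by TMT10plex mass spectrometry, three independent biological replicates.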
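Throughout, for solubility change mitosis vs G1/S (difference of NP-40 vs SDS log2 ratios): synchronized HeLa Kyoto cells (double thymidine block for G1/S, nocodazole release for mitosis), protein amounts in NP-40 versus SDS lysates quantified by mass spectrometry, three biological replicates.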
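Throughout, for solubility in G1/S (NP-40 vs SDS abundance): HeLa Kyoto cells arrested at G1/S by double thymidine block, proteins quantified by TMT10plex mass spectrometry in mild NP-40 versus SDS extracts, three biological replicates.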
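Throughout, for thermal stability score vs G1/S (z-score of summed log2 fold changes over temperatures): synchronized HeLa Kyoto cells, proteins quantified by TMT10plex mass spectrometry, three biological replicates, mitosis taken 0.5 h after nocodazole release, G1/S directly after double thymidine block.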

THOP1, sequence (chain, as listed by the source): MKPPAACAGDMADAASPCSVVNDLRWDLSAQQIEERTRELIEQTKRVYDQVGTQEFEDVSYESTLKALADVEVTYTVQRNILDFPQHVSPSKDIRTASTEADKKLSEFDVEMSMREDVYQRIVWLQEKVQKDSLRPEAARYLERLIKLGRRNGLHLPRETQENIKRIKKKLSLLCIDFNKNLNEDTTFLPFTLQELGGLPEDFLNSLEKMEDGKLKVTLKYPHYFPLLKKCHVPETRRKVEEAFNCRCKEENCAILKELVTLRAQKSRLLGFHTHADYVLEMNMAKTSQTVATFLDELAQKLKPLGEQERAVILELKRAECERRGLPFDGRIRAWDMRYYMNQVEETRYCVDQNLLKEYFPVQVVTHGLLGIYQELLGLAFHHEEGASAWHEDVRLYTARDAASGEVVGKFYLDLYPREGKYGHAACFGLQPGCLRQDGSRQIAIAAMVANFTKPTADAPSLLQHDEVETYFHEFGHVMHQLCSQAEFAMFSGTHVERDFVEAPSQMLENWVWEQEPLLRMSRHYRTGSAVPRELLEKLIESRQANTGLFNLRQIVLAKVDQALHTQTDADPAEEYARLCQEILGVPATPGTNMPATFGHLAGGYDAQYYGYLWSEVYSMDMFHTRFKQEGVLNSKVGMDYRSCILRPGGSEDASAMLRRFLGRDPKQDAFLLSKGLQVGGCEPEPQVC

Regarding “MERPDKAALNALQPPEFRNESSLASTLKTLLFFTALMITVPIGLYFTTKSYIFEGALGMSNRDSYFYAAIVAVVAVHVVLALFVYVAWNEGSRQWREGKQD [VMA21]”, in the series on HeLa Kyoto [1], the “solubility in G1/S (log2)” value was -0.135. In addition, the thermal stability score is -1.79 with HeLa Kyoto [2] (setting [5]) and -0.397 in the series on HeLa Kyoto [2] (cell cycle stage: mitosis). Also, the “solubility change mitosis (log2)” value in the series on HeLa Kyoto [3] is -0.124. In addition, the melting temperature was 55.6 °C in the series with HeLa Kyoto [4] (cell cycle stage: G1/S) and 56.7 °C in the series with HeLa Kyoto [4] (cell cycle stage: mitosis).
For the substance “MKPKLMYQELKVPAEEPANELPMNEIEAWKAAEKKARWVLLVLILAVVGFGALMTQLFLWEYGDLHLFGPNQRPAPCYDPCEAVLVESIPEGLDFPNASTGNPSTSQAWLGLLAGAHSSLDIASFYWTLTNNDTHTQEPSAQQGEEVLRQLQTLAPKGVNVRIAVSKPSGPQPQADLQALLQSGAQVRMVDMQKLTHGVLHTKFWVVDQTHFYLGSANMDWRSLTQVKELGVVMYNCSCLARDLTKIFEAYWFLGQAGSSIPSTWPRFYDTRYNQETPMEICLNGTPALAYLASAPPPLCPSGRTPDLKALLNVVDNARSFIYVAVMNYLPTLEFSHPHRFWPAIDDGLRRATYERGVKVRLLISCWGHSEPSMRAFLLSLAALRDNHTHSDIQVKLFVVPADEAQARIPYARVNHNKYMVTERATYIGTSNWSGNYFTETAGTSLLVTQNGRGGLRSQLEAIFLRDWDSPYSHDLDTSADSVGNACRLL [PLD3]”, in the series with HeLa Kyoto [1], the “solubility in G1/S (log2)” value was 0.309. Further, the thermal stability score was -2.87 in the series on HeLa Kyoto [2] (setting [5]) and -4.26 with HeLa Kyoto [2] (cell cycle stage: mitosis). Moreover, in the series on HeLa Kyoto [3], the “solubility change mitosis (log2)” value was -0.0637. For the same substance, the melting temperature in the series with HeLa Kyoto [4] (cell cycle stage: G1/S) was found to be 55.7 °C; with HeLa Kyoto [4] (cell cycle stage: mitosis), 55.3 °C.
For the substance “MLSSTDFTFASWELVVRVDHPNEEQQKDVTLRVSGDLHVGGVMLKLVEQINISQDWSDFALWWEQKHCWLLKTHWTLDKYGVQADAKLLFTPQHKMLRLRLPNLKMVRLRVSFSAVVFKAVSDICKILNIRRSEELSLLKPSGDYFKKKKKKDKNNKEPIIEDILNLESSPTASGSSVSPGLYSKTMTPIYDPINGTPASSTMTWFSDSPLTEQNCSILAFSQPPQSPEALADMYQPRSLVDKAKLNAGWLDSSRSLMEQGIQEDEQLLLRFKYYSFFDLNPKYDAVRINQLYEQARWAILLEEIDCTEEEMLIFAALQYHISKLSLSAETQDFAGESEVDEIEAALSNLEVTLEGGKADSLLEDITDIPKLADNLKLFRPKKLLPKAFKQYWFIFKDTSIAYFKNKELEQGEPLEKLNLRGCEVVPDVNVAGRKFGIKLLIPVADGMNEMYLRCDHENQYAQWMAACMLASKGKTMADSSYQPEVLNILSFLRMKNRNSASQVASSLENMDMNPECFVSPRCAKRHKSKQLAARILEAHQNVAQMPLVEAKLRFIQAWQSLPEFGLTYYLVRFKGSKKDDILGVSYNRLIKIDAATGIPVTTWRFTNIKQWNVNWETRQVVIEFDQNVFTAFTCLSADCKIVHEYIGGYIFLSTRSKDQNETLDEDLFHKLTGGQD [FERMT1]”, the “solubility in G1/S (log2)” value in the series on HeLa Kyoto [1] is -0.0778. Also, the thermal stability score was -0.277 in the series on HeLa Kyoto [2] (setting [5]) and -0.501 with HeLa Kyoto [2] (cell cycle stage: mitosis). In addition, the “solubility change mitosis (log2)” value with HeLa Kyoto [3] is -0.199. Besides, the melting temperature in the series with HeLa Kyoto [4] (cell cycle stage: G1/S) was 50.2 °C; in the series on HeLa Kyoto [4] (cell cycle stage: mitosis) it was 49.8 °C.
With “MAEGSAVSDPQHAARLLRALSSFREESRFCDAHLVLDGEEIPVQKNILAAASPYIRTKLNYNPPKDDGSTYKIELEGISVMVMREILDYIFSGQIRLNEDTIQDVVQAADLLLLTDLKTLCCEFLEGCIAAENCIGIRDFALHYCLHHVHYLATEYLETHFRDVSSTEEFLELSPQKLKEVISLEKLNVGNERYVFEAVIRWIAHDTEIRKVHMKDVMSALWVSGLDSSYLREQMLNEPLVREIVKECSNIPLSQPQQGEAMLANFKPRGYSECIVTVGGEERVSRKPTAAMRCMCPLYDPNRQLWIELAPLSMPRINHGVLSAEGFLFVFGGQDENKQTLSSGEKYDPDANTWTALPPMNEARHNFGIVEIDGMLYILGGEDGEKELISMECYDIYSKTWTKQPDLTMVRKIGCYAAMKKKIYAMGGGSYGKLFESVECYDPRTQQWTAICPLKERRFGAVACGVAMELYVFGGVRSREDAQGSEMVTCKSEFYHDEFKRWIYLNDQNLCIPASSSFVYGAVPIGASIYVIGDLDTGTNYDYVREFKRSTGTWHHTKPLLPSDLRRTGCAALRIANCKLFRLQLQQGLFRIRVHSP [GAN]”, in the series with HeLa Kyoto [1], the “solubility in G1/S (log2)” value is -0.0081. Besides, the thermal stability score in the series with HeLa Kyoto [2] (setting [5]) was -0.83; with HeLa Kyoto [2] (cell cycle stage: mitosis), -2.48. In addition, in the series on HeLa Kyoto [3], the “solubility change mitosis (log2)” value is -0.271. Besides, the figures for the melting temperature with HeLa Kyoto [4] (cell cycle stage: G1/S) and in the series on HeLa Kyoto [4] (cell cycle stage: mitosis) were 51.6 °C and 48.7 °C, respectively.
As to “MGASARLLRAVIMGAPGSGKGTVSSRITTHFELKHLSSGDLLRDNMLRGTEIGVLAKAFIDQGKLIPDDVMTRLALHELKNLTQYSWLLDGFPRTLPQAEALDRAYQIDTVINLNVPFEVIKQRLTARWIHPASGRVYNIEFNPPKTVGIDDLTGEPLIQREDDKPETVIKRLKAYEDQTKPVLEYYQKKGVLETFSGTETNKIWPYVYAFLQTKVPQRSQKASVTP [AK3]”, the “solubility in G1/S (log2)” value in the series on HeLa Kyoto [1] worked out at 0.43. Moreover, the thermal stability score in the series with HeLa Kyoto [2] (setting [5]) is -1.02; in the series with HeLa Kyoto [2] (cell cycle stage: mitosis) it was -2.48. Also, the “solubility change mitosis (log2)” value in the series with HeLa Kyoto [3] came to 0.00633. Moreover, the melting temperature was found to be 54.3 °C in the series on HeLa Kyoto [4] (cell cycle stage: G1/S) and 54.2 °C in the series on HeLa Kyoto [4] (cell cycle stage: mitosis).
“MNREDRNVLRMKERERRNQEIQQGEDAFPPSSPLFAEPYKVTSKEDKLSSRIQSMLGNYDEMKDFIGDRSIPKLVAIPKPTVPPSADEKSNPNFFEQRHGGSHQSSKWTPVGPAPSTSQSQKRSSGLQSGHSSQRTSAGSSSGTNSSGQRHDRESYNNSGSSSRKKGQHGSEHSKSRSSSPGKPQAVSSLNSSHSRSHGNDHHSKEHQRSKSPRDPDANWDSPSRVPFSSGQHSTQSFPPSLMSKSNSMLQKPTAYVRPMDGQESMEPKLSSEHYSSQSHGNSMTELKPSSKAHLTKLKIPSQPLDASASGDVSCVDEILKEMTHSWPPPLTAIHTPCKTEPSKFPFPTKESQQSNFGTGEQKRYNPSKTSNGHQSKSMLKDDLKLSSSEDSDGEQDCDKTMPRSTPGSNSEPSHHNSEGADNSRDDSSSHSGSESSSGSDSESESSSSDSEANEPSQSASPEPEPPPTNKWQLDNWLNKVNPHKVSPASSVDSNIPSSQGYKKEGREQGTGNSYTDTSGPKETSSATPGRDSKTIQKGSESGRGRQKSPAQSDSTTQRRTVGKKQPKKAEKAAAEEPRGGLKIESETPVDLASSMPSSRHKAATKGSRKPNIKKESKSSPRPTAEKKKYKSTSKSSQKSREIIETDTSSSDSDESESLPPSSQTPKYPESNRTPVKPSSVEEEDSFFRQRMFSPMEEKELLSPLSEPDDRYPLIVKIDLNLLTRIPGKPYKETEPPKGEKKNVPEKHTREAQKQASEKVSNKGKRKHKNEDDNRASESKKPKTEDKNSAGHKPSSNRESSKQSAAKEKDLLPSPAGPVPSKDPKTEHGSRKRTISQSSSLKSSSNSNKETSGSSKNSSSTSKQKKTEGKTSSSSKEVKEKAPSSSSNCPPSAPTLDSSKPRRTKLVFDDRNYSADHYLQEAKKLKHNADALSDRFEKAVYYLDAVVSFIECGNALEKNAQESKSPFPMYSETVDLIKYTMKLKNYLAPDATAADKRLTVLCLRCESLLYLRLFKLKKENALKYSKTLTEHLKNSYNNSQAPSPGLGSKAVGMPSPVSPKLSPGNSGNYSSGASSASASGSSVTIPQKIHQMAASYVQVTSNFLYATEIWDQAEQLSKEQKEFFAELDKVMGPLIFNASIMTDLVRYTRQGLHWLRQDAKLIS [AFF4]”: the “solubility in G1/S (log2)” value with HeLa Kyoto [1] was determined as 0.00478. The thermal stability score with HeLa Kyoto [2] (setting [5]) was found to be 0.474; in the series with HeLa Kyoto [2] (cell cycle stage: mitosis), 1.75. Also, the “solubility change mitosis (log2)” value with HeLa Kyoto [3] amounted to 0.309. For the same substance, the melting temperature was 48.6 °C with HeLa Kyoto [4] (cell cycle stage: G1/S) and 51 °C in the series with HeLa Kyoto [4] (cell cycle stage: mitosis).
For THOP1, the “solubility in G1/S (log2)” value in the series on HeLa Kyoto [1] worked out at 0.0611. Also, the thermal stability score is -1.55 in the series with HeLa Kyoto [2] (setting [5]) and -2.28 with HeLa Kyoto [2] (cell cycle stage: mitosis). The “solubility change mitosis (log2)” value with HeLa Kyoto [3] is -0.109. The melting temperature worked out at 56.3 °C with HeLa Kyoto [4] (cell cycle stage: G1/S) and 56.1 °C in the series with HeLa Kyoto [4] (cell cycle stage: mitosis).
